Assay results: patent publication US12139534B2, “Methods and compositions for decreasing soluble immune receptor CD28” (BIOND BIOLOGICS LTD., priority 2018, dated 2024)

What was measured:
[1] = system: isolated CD3 human T cells; experiment: CD3 T cells stimulation with anti-CD3 OKT3, IFN gamma secretion; assay type: cell-based; conditions: anti-CD3 stimulation; CD28.2 2.0 μg/mL, antibodies 0.1-10 μg/mL
Method: T cells stimulation with OKT3—0.1×10^6 isolated CD3 T cells (from healthy donors) were stimulated with indicated amount of anti-CD3 clone OKT3 for 48-72 hr at 37° C. When stated recombinant human CD80-Fc (2 μg/mL, R&D system) was added in soluble form. Antibodies to CD28 or controls were added at the indicated concentration in soluble form.
CD80 is one of the two main ligands for mCD28 along with CD86. The extracellular domain of CD80 fused to an Fc moiety has been used as an immune stimulatory molecule and is under investigation as a cancer therapy. In order to examine the effect of sCD28 on CD80-Fc efficacy, isolated CD3 human T cells were stimulated with plate bound anti-CD3 antibody (OKT3, 2 μg/mL) in the presence of 2 μg/mL soluble recombinant human CD80-Fc.

[2] = biological target: T1, recombinant human CD28 (Homo sapiens, UniProt P10747); experiment: Direct CD28 ELISA on recombinant human CD28; assay type: binding
T1 construct: recombinant human CD28 lacking the transmembrane and cytoplasmic domains; purchased R&D 342-CD

[3] = biological target: T2, recombinant mouse CD28 (Mus musculus, UniProt P31041); experiment: Direct ELISA on recombinant mouse CD28; assay type: binding
T2 construct: ELISA assay on increasing concentrations of mouse sCD28; purchased R&D 483-CD

[4] = biological target: T3, mCD28 (Homo sapiens, UniProt P10747); experiment: CD86 blocking FACS on HEK293 cells stably transfected with human CD28; assay type: binding; conditions: CD86-Fc 5 μg/mL; antibody 20 μg/mL
T3 construct: expressed in transfected cells
Method: CD86 blocking FACS—0.5×10^6 HEK293 cells stably transfected with human CD28 were incubated with 5 μg/mL CD86-Fc (R&D systems, Cat. No. 141-B2) without or with anti CD28 antibodies (20 μg/mL) for 30 min in room temperature. Cells were washed and taken for secondary binding using anti-human heavy and light chains antibody conjugated to fluorophore at 1:5000 dilution for 20 min on ice.

[5] = biological target: T3, mCD28; experiment: FACS binding to mCD28 on naïve CD3 T cells; conditions: antibody 20 μg/mL
Method: Flow Cytometry—Generally, cells were kept on ice during all steps. Prior to staining, 5×10^5 cells were blocked with 50 μg/mL human IgG (Sigma, Cat. No. 14506) in FACS buffer (PBS with 0.1% BSA) for 15 min. Antibodies were used at concentrations recommended by the manufacturer and incubated for 30 min. in the dark. Incubations were done in a volume of 100 μL in 96-well U bottom plates. Cells were washed twice with 200 μL of FACS buffer and transferred to FACS tubes in 150 μL of FACS buffer for analysis. Cells were analyzed on a Gallios Flow Cytometer (Beckman Coulter) using the Kaluza for Gallios Flow Cytometry Acquisition Software.
Lastly, the ability of antibodies #1-3 to bind to mCD28 at all was examined. While it is not essential that a sCD28 antibody not bind mCD28 it is advantageous. Such an antibody could be used for specific detection of the soluble protein, and if used therapeutically would have no effect on the membranal form. Naïve isolated CD3 T cells were evaluated by FACs to assay mCD28 binding. Cells were incubated with antibodies #1-3 (20 μg/mL dark grey histograms) or isotype controls (mIgG, 20 μg/mL, light grey histograms). Binding detection was performed with Alexa Fluor 647-conjugated goat anti mouse secondary antibody.

[6] = system: sCD28; experiment: Simulated sweeping of soluble CD28 from plasma with antibody coated magnetic beads; design: species or system human; conditions: cancer patient plasma; 0.125-2 μg antibody on beads; 37° C. 2 hours
Method: Simulated sweeping of soluble CD28 from plasma of cancer patient. Antibodies or recombinant proteins were coated on tosyl-activated magnetic beads (Invitrogen, Cat. No. DY-14203) as described by manufacturer protocol. […] The mixture was incubated in a thermomixer for 2 hr, 1000 RPM at 37° C., followed by removal of the beads using a DynaMag magnet (Invitrogen, Cat. No. 12321D) and the samples were examined using CD28 specific ELISA.
Varying amounts (0.125-2 μg) of antibodies #1 and #2 were loaded onto tosyl-activated magnetic beads according to the manufacturer's protocol (Thermo Fisher Scientific). The loaded beads were then added to plasma samples from a cancer patient, and the mixture was incubated in a thermomixer at 37° C. for 2 hours at 1000 RPM. The beads were isolated and removed from the plasma with a magnet and the amount of sCD28 remaining in the serum was measured by ELISA.
Antibody #1 was further tested on various cancer samples (melanoma, colorectal and ovarian) and compared to three B7 molecules which are known ligands of CD28. About 1.5 μg of antibody #1, CD80, CD86 and ICOSL were each loaded onto tosyl-activated magnetic beads and the beads were mixed with plasma as before. A colorectal sample (FIG. 16C), as well as two melanoma samples (FIG. 16D-E), an ovarian sample (FIG. 16F) and a sample from a healthy donor (FIG. 16G) were all tested.

T2 sequence (P31041 20-150 limits assumed): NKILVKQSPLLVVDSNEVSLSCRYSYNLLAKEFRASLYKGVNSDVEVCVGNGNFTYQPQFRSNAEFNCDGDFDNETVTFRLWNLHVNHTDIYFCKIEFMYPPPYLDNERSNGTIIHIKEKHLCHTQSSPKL

B1: antibody #2: sCD28 binding (sweeping) antibody; heavy chain SEQ ID NO: 46, light chain SEQ ID NO: 48 (antibody)
heavy: QVQLQQSGAELARPGASVKLSCKASGYTFTSYWMQWIKKRPGQGLEWIGAIYPGDGDTRYTQKFKGKATLTADKSSTTAYMQLSSLASEDSAVYFCARNYRYSSFGYWGQGTLVTVSAAKTTPPSVYPLAPGCGDTTGSSVTLGCLVKGYFPESVTVTWNSGSLSSSVHTFPALLQSGLYTMSSSVTVPSSTWPSQTVTCSVAHPASSTTVDKKLEPSGPISTINPCPPCKECHKCPAPNLEGGPSVFIFPPNIKDVLMISLTPKVTCVVVDVSEDDPDVQISWFVNNVEVHTAQTQTHREDYNSTIRVVSTLPIQHQDWMSGKEFKCKVNNKDLPSPIERTISKIKGLVRAPQVYILPPPAEQLSRKDVSLTCLVVGFNPGDISVEWTSNGHTEENYKDTAPVLDSDGSYFIYSKLNMKTSKWEKTDSFSCNVRHEGLKNYYLKKTISRSPGK
light: DIVMTQSPSSLTVTAGEKVTLSCKSSQSLLNSGNQKNYLTWYQQKPGQPPQLLIYWASTRESGVPDRFTGSGSGTDFTLTISSVQAEDLAVYYCQSDYSYPLTFGAGTKLELKRADAAPTVSIFPPSSEQLTSGGASVVCFLNNFYPKDINVKWKIDGSERQNGVLNSWTDQDSKDSTYSMSSTLTLTKDEYERHNSYTCEATHKTSTSPIVKSFNRNEC
IFNγ secretion (agonism) [1]: no effect on IFN secretion | relationship of signal to concentration [2]: a linear relationship to increasing antibody concentrations over the entire range examined | binding to sCD28 ([2]; immobilized recombinant human sCD28): much stronger binding to sCD28 | binding to mouse CD28 [3]: able to bind mouse CD28 | CD86 binding to mCD28 [4]: none of antibody #1 (FIG. 15B), antibody #2 (FIG. 15C), or antibody #3 (FIG. 15D) blocked binding of CD86 to mCD28 | binding to mCD28 on the cell surface [5]: do not bind CD28 on the cell surface | removal of sCD28 from plasma [6]: capable of binding and removing sCD28 from plasma
